Laboratory results taken from patent US20070212679.

Molecular target: T1, human GST-E1 (Boston Biochem), P22314
T1 chain: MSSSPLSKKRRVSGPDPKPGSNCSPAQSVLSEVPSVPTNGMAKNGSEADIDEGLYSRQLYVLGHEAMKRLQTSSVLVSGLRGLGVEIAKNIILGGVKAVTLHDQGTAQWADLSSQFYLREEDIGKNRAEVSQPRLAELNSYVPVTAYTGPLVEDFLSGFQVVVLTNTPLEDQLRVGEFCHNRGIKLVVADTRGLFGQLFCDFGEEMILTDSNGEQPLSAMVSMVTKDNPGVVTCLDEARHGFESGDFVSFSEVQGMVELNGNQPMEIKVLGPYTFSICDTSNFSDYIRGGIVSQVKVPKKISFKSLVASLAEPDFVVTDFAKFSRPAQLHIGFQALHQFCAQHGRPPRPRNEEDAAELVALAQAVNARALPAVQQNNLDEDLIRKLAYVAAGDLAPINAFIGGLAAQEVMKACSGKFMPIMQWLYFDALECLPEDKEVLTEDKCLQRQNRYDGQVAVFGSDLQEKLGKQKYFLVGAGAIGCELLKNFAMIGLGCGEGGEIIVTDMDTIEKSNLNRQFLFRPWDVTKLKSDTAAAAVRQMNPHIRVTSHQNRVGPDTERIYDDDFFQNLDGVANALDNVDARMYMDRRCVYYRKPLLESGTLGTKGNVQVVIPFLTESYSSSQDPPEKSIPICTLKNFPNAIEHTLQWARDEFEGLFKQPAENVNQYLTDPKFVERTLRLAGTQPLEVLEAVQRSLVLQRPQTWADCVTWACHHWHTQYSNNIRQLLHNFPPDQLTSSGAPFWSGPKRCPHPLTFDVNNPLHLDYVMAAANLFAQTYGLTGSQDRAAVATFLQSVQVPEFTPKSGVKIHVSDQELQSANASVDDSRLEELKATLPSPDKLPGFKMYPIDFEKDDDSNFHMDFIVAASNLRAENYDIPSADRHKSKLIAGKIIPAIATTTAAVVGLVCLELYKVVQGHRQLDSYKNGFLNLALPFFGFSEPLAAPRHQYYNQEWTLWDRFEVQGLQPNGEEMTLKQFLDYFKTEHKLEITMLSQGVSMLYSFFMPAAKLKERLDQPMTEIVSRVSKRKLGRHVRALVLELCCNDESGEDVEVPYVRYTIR

B1: His6-Parkin (full-length human Parkin fused to an N-terminal histidine tag, from E. coli, refolded) (protein)
chain: IYICTIIIIISSGLVPRGSGMKETAAAKFERQHMDSPDLGTDDDDKAMADIGSAATMIVFVRFNSSHGFPVEVDSDTSIFQLKEVVAKRQGVPADQLRVIFAGKELRNDWTVQNCDLDQQSIVHIVQRPWRKGQEMNATGGDDPRNAAGGCEREPQSLTRVDLSSSVLPGDSVGLAVILHTDSRKDSPPAGSPAGRSIYNSFYVYCKGPCQRVQPGKLRVQCSTCRQATLTLTQGPSCWDDVLIPNRMSGECQSPHCPGTSAEFFFKCGAHPTSDKETPVALHLIATNSRNITCITCTDVRSPVLVFQCNSRHVICLDCFHLYCVTRLNDRQFVHDPQLGYSLPCVAGCPNSLIKELHHFRILGEEQYNRYQQYGAEECVLQMGGVLCPRPGCGAGLLPEPDQRKVTCEGGNGLGCGFAFCRECKEAYHEGECSAVFEASGTTTQAYRVDERAAEQARWEAASKETIKKTTKPCPRCHVPVEKNGGCMHMKCPQPQCRLEWCWNCGCEWNRVCMGDHWFDV
- ubiquitination of Parkin in the absence of UbcH7 (biotin-ubiquitin detected on blot with NeutrAvidin-HRP): some reaction product was seen in the absence of UbcH7 when Parkin was incubated with E1 and ubiquitin for 90 minutes
